Where a chain is given by its changes, count along the chain named.
B1: mAb 1F91 (antibody, IgG1, V domains shown)
VH: DVQLQESGPGLVKPSQSLSLTCTVSGYSITSDYAWNWIRQFPGNKLEWMGYISYSGSTSYNPSLKSRISITRDTSKNQFFLQLNSVTTEDTATYYCARWAYDGPWGQGTLVTVSA
VL: QIVLSQSPALLSASPGEKVTMTCRASSSVSHMHWYQQKPGSSPKPWIYATSNLASGVPARFSGSGSGTSYSLTITRVEAEDAATYYCQQWSSNPFTFGSGTKLEIKR
notes: Murine mIgG1, kappa light chain
B2: mAb 2F22 (antibody, IgG1, V domains shown)
VH: QVQLKQSGPGLVQPSQSLSITCTVSGFSLTNYGVHWVRQSPGKGLEWLAVIWRGGSIDYNAAFMSRLSITKDNSKSQVFFKMNSLQADDTAIYYCAKNSHGNYVGYAMDYWGQGTSVTVSS
VL: GIVMTQSQKFMSTTVGDRVSITCKASQSVGPAVAWYQQKPGQSPKLLIYSASNRYTGVPDRFTGSGSGADFTLTISNLHSEDLADYFCQQYTSYPTFGGGTKLEIKR
notes: as for B1
B3: mAb 2F3 (antibody, IgG1, V domains shown)
VH: B2 VH with T30S, N31S, A49G, I57T, Y59F, L67V, I69F
VL: DIVMTQSQKFMSTTVGDKVSIPCKASENVGAAVAWYQQKPGQSPTLLIYSASNRYTGIPDRFTGSGSGTDFTLTIRTVQSEDLADYFCQQYTNYPTFGGGTKLEIKR
notes: as for B1
B4: mAb 2F35 (antibody, IgG1, V domains shown)
VH: EVQLQQSGAELVRPGALVKLSCKASGFNIKDYYIHWVKQRPEQGLEWIGWIDPENGNTIFDPKFQGRASITADTSSNTAYLQLSSLTSEDTAVYYCAGRWYAMDYWGQGTSVTVSS
VL: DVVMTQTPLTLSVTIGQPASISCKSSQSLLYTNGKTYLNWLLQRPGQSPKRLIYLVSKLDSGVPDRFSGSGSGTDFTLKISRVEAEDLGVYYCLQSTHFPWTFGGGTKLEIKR
notes: as for B1
B5: mAb 1F56 (antibody, V domains shown)
VH: B1 VH
VL: B1 VL
notes: murine antibody from hybridoma
B6: FXa (enzyme)
chain 1: ANSFLEEMKKGHLERECMEETCSYEEAREVFEDSDKTNEFWNKYKDGDQCETSPCQNQGKCKDGLGEYTCTCLEGFEGKNCELFTRKLCSLDNGDCDQFCHEEQNSVVCSCARGYTLADNGKACIPTGPYPCGKQTLER
chain 2: IVGGQECKDGECPWQALLINEENEGFCGGTILSEFYILTAAHCLYQAKRFKVRVGDRNTEQEEGGEAVHEVEVVIKHNRFTKETYDFDIAVLRLKTPITFRMNVAPACLPERDWAESTLMTQKTGIVSGFGRTHEKGRQSTRLKMLEVPYVDRNSCKLSSSFIITQNMFCAGYDTKQEDACQGDSGGPHVTRFKDTYFVTGIVSWGEGCARKGKYGIYTKVTAFLKWIDRSMKTRGLPKAKSHAPEVITSSPLK
B7: Fab 0295 (Fab, V domains shown)
VH: B2 VH
VL: B2 VL
notes: Chimeric Fab of mAb 2F22; heavy chain truncated after the first cysteine of the human IgG4 hinge
B8: Fab 0296 (Fab, V domains shown)
VH: B2 VH
VL: B2 VL
notes: Chimeric Fab of mAb 2F22; heavy chain truncated after the human IgG4 hinge lysine; also called anti-TFPI2F22 Fab

molecular target: T1, human TFPIα (human, UniProt P10646 29-304); assay: cell-based or functional assay

| Binder | FVIIa/sTF activity (%); 150 nM TFPIα, 200 nM antibody | FXa activity (%) after 100 min incubation; 4 nM TFPIα, 20 nM antibody |
| --- | --- | --- |
| B1 | 82.2% | 5.1% |
| B2 | 88.3% | 60.8% |
| B3 | 88.6% | 58.1% |
| B4 | 61.4% | 4.2% |

molecular target: T1, human TFPIα; assay: cell-based or functional assay; remark: another data set of the same source

| Binder | Thrombin peak height (Peak); thrombin generation in FVIII-neutralised plasma + 5 nM TFPIα, 10 nM antibody | Thrombin peak height (Peak); thrombin generation in FVIII-neutralised plasma, no TFPIα added (plasma TFPI), 10 nM antibody | time to peak (ttPeak); thrombin generation in FVIII-neutralised plasma + 5 nM TFPIα, 10 nM antibody | time to peak (ttPeak); thrombin generation in FVIII-neutralised plasma, no TFPIα added (plasma TFPI), 10 nM antibody |
| --- | --- | --- | --- | --- |
| B5 | 3.7 nM | 35.2 nM | 47.8 min | 8.9 min |
| B1 | 3.6 nM | 34.6 nM | 51.8 min | 9 min |
| B2 | 46.5 nM | 100 nM | 11.3 min | 9.1 min |
| B3 | 28.6 nM | 88.4 nM | 13.8 min | 9.3 min |
| B4 | 3.6 nM | 30.4 nM | 70.3 min | 9.6 min |

molecular target: T1, human TFPIα; assay: SPR Biacore T200; TFPIα held by captured mAb 2F48

| Binder | fold decrease of the affinity for TFPI to FXa, against TFPI bound to mAb 4F110 |
| --- | --- |
| B6 | < 10 fold |

molecular target: T2, human TFPI (1-79) (human, UniProt P10646 29-107); assay: SPR Biacore T200; mAb captured on anti-mouse Ig; TFPI as analyte; 1:1 model
T2 construct: Acidic N-terminal region and KPI-1 domain
Excerpt: (§1) Binding interaction data were obtained by means of Surface Plasmon Resonance in a Biacore T200 instrument. Polyclonal rabbit anti-mouse immunoglobulin (Mouse Antibody Capture Kit, GE Healthcare) was immobilized to a series S CM4 sensor chip (GE Healthcare) in flow-cells 1-4 using the amine coupling protocol available with the Biacore T-200 control software version 2.0 (GE Healthcare) and the reagents provided with the Amine Coupling Kit (GE Healthcare). The relevant mouse monoclonal antibody was captured in flow cell 2, 3, or 4 at a fixed concentration. Different concentrations of human TFPIα or TFPI (1-79) were tested by diluting the sample in running buffer (10 mM HEPES, pH 7.4, 300 mM NaCl, 5 mM CaCl₂, 0.05% Surfactant P20, 1 mg/ml BSA). Each sample was assayed using 300 seconds of contact time followed by 420-600 seconds of dissociation time at 30 μl/min flow rate. A buffer blank was also assayed. The sensor surface was regenerated with 10 mM Glycine pH 1.7 either for 180 sec at 30 μl/min flow rate or with two cycles each of 30 seconds at 30 μl/min flow rate.
(§2) The Biacore T200 Evaluation software (version 2.0) was used to analyse the data. Determination of binding constants (kₐ, kd, KD) was obtained assuming a 1:1 interaction of TFPI and the monoclonal antibody of interest.

| Binder | Kd | koff | kon |
| --- | --- | --- | --- |
| B5 | 13.5 nM | 0.00505 s⁻¹ | 375000 M⁻¹ s⁻¹ |
| B1 | 15.1 nM | 0.005 s⁻¹ | 330000 M⁻¹ s⁻¹ |
| B2 | 0.965 nM |  |  |
| B3 | 0.561 nM | 0.000154 s⁻¹ | 274000 M⁻¹ s⁻¹ |
| B4 | 13.3 nM | 0.00251 s⁻¹ | 188000 M⁻¹ s⁻¹ |

molecular target: T1, human TFPIα; assay: as above
Excerpt: as §1, §2

| Binder | Kd | koff | kon |
| --- | --- | --- | --- |
| B5 | 9.81 nM | 0.00361 s⁻¹ | 368000 M⁻¹ s⁻¹ |
| B1 | 10 nM | 0.00349 s⁻¹ | 347000 M⁻¹ s⁻¹ |
| B2 | 0.688 nM |  |  |
| B3 | 0.448 nM | 7.69e-05 s⁻¹ | 172000 M⁻¹ s⁻¹ |
| B4 | 6.27 nM | 0.00141 s⁻¹ | 224000 M⁻¹ s⁻¹ |

molecular target: T1, human TFPIα; assay: cell-based or functional assay; remark: another data set of the same source

| Binder | FXa activity (%); remaining FXa amidolytic activity after 40 min, 32 nM mAb pre-incubated with 8 nM TFPIα |
| --- | --- |
| B5 | 5.5% |
| B1 | 5.8% |
| B2 | 50.4% |
| B3 | 48.9% |
| B4 | 13.4% |

molecular target: T1, human TFPIα; assay: cell-based or functional assay; remark: another data set of the same source

| Binder | Thrombin peak height (Peak); thrombin generation in FVIII-neutralised plasma + 20 nM TFPIα, 200 nM antibody |
| --- | --- |
| B1 | 0 nM |
| B2 | 23.7 nM |
| B3 | 20.9 nM |
| B4 | 0 nM |

molecular target: T1, human TFPIα; assay: SPR Biacore T200; Fab captured on Human Fab Binder; TFPIα as analyte; 1:1 model; 25 °C
Experimental: Human Fab Binder (Human Fab Capture Kit, GE Healthcare) was immobilized to a series S CM4 sensor chip (GE Healthcare) in flow-cells 1-4 at 9000-10000 response units (RU) using the amine coupling protocol available within the Biacore T-200 control software (GE Healthcare) and the reagents provided with the Amine Coupling Kit (GE Healthcare). […] Different concentrations of human TFPIα were tested by diluting the sample in running buffer (10 mM HEPES, pH 7.4, 300 mM NaCl, 5 mM CaCl₂, 0.05% Surfactant P20, 1 mg/ml BSA). Each sample was assayed using 300 seconds of contact time followed by 600 seconds of dissociation time at 50 μl/min flow rate. A buffer blank was also assayed. The sensor surface was regenerated with 10 mM Glycine pH 2.1 with two cycles each of 30 seconds at 50 μl/min flow rate. The analysis temperature was 25° C. and the sample compartment temperature 10° C.
as §2

| Binder | Kd |
| --- | --- |
| B7 | 0.41 nM |
| B8 | 0.72 nM |

molecular target: T1, human TFPIα; assay: cell-based or functional assay; remark: another data set of the same source

| Binder | FXa activity (%); FXa generated after 30 min by FVIIa/Innovin/FX with 4 nM TFPIα, 64 nM antibody |
| --- | --- |
| B5 | 18.4% |
| B1 | 13.9% |
| B2 | 40.5% |
| B3 | 36.6% |
| B4 | 18.3% |

molecular target: T1, human TFPIα; assay: SPR Biacore T200; TFPIα held by captured mAb 2F22

| Binder | fold decrease of the affinity for TFPI to FXa, against TFPI bound to mAb 4F110 |
| --- | --- |
| B6 | > 30 fold |
